According to patent US20220275097A1 (SHANGHAITECH UNIVERSITY, published 2022):
Positions count from the first letter of the chain named.

B1: S1scAb06 (antibody, V domains shown)
VH: QVQLVESGGGVVQPGRSLRLSCAASGFTFSSYGMHWVRQAPGKGLEWVAVISYDGSNKYYADSVKGRFTISRDNSKNTLYLQMNSLRAEDTAVYYCAKSLRNSFDYWGQGTLVTVSS
VL: EIVLTQSPGTLSLSPGERATLSCRASQSVSSNYLAWYQQKPGQAPRLLIYGASSRPTGIPDRFSGSGSGTDFTLTISRLEPEDFAVYYCQQYAASPLTFGGGTKLEIK
notes: also called S1scAb6; 51scAb06
B2: S2H2 (antibody, V domains shown)
VH: B1 VH with V5L, E6Q, K98T, S99F, L100R, R101E, S103Y, D105E
VL: B1 VL
notes: also called SC2H2; 52H2
B3: S2H1 (antibody, V domains shown)
VH: B1 VH with V5L, E6Q, K98S, S99L, L100Y, R101E, S103Y, D105S, Y106L
VL: B1 VL
notes: also called SC2H1
B4: S2H6 (antibody, V domains shown)
VH: B1 VH with V5L, E6Q, K98S, S99F, L100Q, R101E, S103Y, D105T
VL: B1 VL
notes: also called SC2H6
B5: S2H3 (antibody, V domains shown)
VH: B1 VH with V5L, E6Q, K98G, S99V, L100R, R101E, S103Y, D105T
VL: B1 VL
notes: also called SC2H3
B6: S2H5 (antibody, V domains shown)
VH: B1 VH with V5L, E6Q, K98S, S99R, L100Y, R101E, S103Y, D105S, Y106L
VL: B1 VL
notes: also called SC2H5
B7: S2H7 (antibody, V domains shown)
VH: B1 VH with V5L, E6Q, K98T, S99R, L100Y, R101E, S103Y, D105S, Y106T
VL: B1 VL
notes: also called SC2H7

Columns and labels:
[1] = biological target: T1, extracellular domain of the human leptin receptor (human, UniProt P48357 22-839); experiment: SPR, Biacore T200; His-tagged leptin receptor ECD amine-coupled on a CM5 chip, binder as analyte
T1 construct: extracellular domain; a tag is not mentioned for the ELISA and cross-linking experiments; also called hECD; recombinant leptin receptor extracellular domain
T1 sequence (looked up): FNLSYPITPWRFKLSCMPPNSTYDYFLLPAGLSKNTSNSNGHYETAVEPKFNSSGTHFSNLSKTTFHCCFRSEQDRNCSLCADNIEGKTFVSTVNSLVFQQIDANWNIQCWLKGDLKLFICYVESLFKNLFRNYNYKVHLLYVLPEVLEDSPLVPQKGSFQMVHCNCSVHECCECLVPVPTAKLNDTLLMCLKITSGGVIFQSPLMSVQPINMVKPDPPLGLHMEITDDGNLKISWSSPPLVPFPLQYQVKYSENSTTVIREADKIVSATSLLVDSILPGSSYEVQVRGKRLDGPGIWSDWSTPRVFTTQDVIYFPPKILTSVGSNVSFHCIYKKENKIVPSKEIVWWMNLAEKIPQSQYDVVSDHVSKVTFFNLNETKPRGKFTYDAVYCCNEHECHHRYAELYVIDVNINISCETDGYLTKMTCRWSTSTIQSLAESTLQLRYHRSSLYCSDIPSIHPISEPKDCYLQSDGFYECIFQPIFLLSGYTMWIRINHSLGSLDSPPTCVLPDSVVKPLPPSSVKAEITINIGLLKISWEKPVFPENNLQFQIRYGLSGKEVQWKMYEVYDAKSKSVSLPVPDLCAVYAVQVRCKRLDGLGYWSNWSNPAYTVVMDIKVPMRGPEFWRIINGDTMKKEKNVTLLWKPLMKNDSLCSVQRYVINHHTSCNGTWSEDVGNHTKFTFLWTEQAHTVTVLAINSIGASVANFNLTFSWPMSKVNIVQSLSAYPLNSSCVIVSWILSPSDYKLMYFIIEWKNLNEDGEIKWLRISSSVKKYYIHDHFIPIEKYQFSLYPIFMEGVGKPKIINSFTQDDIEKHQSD
Description: The SPR binding assays were performed using the Biacore T200™ (GE Healthcare). […] All manipulations were performed as described in the user guide of the manufacturer. The analysis of the results were processed in BIA evaluation Software™.

[2] = biological target: T1, extracellular domain of the human …; experiment: SPR; leptin receptor ECD immobilized, antibody as analyte
[3] = biological target: T2, immunoglobulin-like domain (IgD) of the leptin receptor extracellular domain, I334-V427 (human, UniProt P48357 334-427); experiment: ELISA of S2H6 on purified subdomains of the leptin receptor extracellular domain, OD405; antibody concentration not given
T2 construct: Expressed and purified subdomain
T2 sequence: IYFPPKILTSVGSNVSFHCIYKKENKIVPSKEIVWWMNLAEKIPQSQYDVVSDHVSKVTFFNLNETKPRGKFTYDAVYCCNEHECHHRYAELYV
Source text: (§1) To test ability if the antibody to bind these domains, these subdomain were used in an ELISA-based biding assay.

[4] = biological target: T3, first cytokine receptor homology domain (CRH1) of the leptin receptor extracellular domain, Q122-V333 (human, UniProt P48357 122-333); experiment: as above
T3 construct: Expressed and purified subdomain
T3 sequence: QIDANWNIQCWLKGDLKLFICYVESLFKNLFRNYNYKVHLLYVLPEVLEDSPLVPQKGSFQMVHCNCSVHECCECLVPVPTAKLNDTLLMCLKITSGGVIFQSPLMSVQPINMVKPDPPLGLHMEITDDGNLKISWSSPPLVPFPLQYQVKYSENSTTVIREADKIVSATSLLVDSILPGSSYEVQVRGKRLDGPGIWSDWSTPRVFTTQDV
Source text: as §1

[5] = biological target: T4, N terminal domain (NTD) of the leptin receptor extracellular domain, F22-Q121 (human, UniProt P48357 22-121); experiment: as above
T4 sequence: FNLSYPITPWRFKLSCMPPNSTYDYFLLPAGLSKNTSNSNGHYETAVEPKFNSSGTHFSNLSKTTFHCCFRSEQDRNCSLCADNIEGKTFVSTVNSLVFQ
Source text: as §1

[6] = biological target: T5, fibronectin type III domains (FNIII) of the leptin receptor extracellular domain, I636-D839 (human, UniProt P48357 636-839); experiment: as above
T5 construct: Expressed and purified subdomain
T5 sequence: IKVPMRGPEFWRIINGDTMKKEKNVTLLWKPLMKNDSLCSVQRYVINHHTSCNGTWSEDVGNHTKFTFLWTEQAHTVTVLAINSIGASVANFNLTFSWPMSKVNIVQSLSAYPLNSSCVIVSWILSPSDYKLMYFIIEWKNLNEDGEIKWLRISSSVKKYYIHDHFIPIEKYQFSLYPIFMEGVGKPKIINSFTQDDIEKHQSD
Source text: as §1

| Binder | Kd [1] [nM] | koff [1] [s⁻¹] | kon [1] [M⁻¹ s⁻¹] | Kd [2] [nM] | koff [2] [s⁻¹] | kon [2] [M⁻¹ s⁻¹] | binding result [3] | binding result [4] | binding result [5] | binding result [6] |
| --- | --- | --- | --- | --- | --- | --- | --- | --- | --- | --- |
| B1 | 7.47 | 0.0516 | 6.91e+06 | – | – | – | – | – | – | – |
| B2 | – | – | – | 0.355 | 0.000119 | 336000 | – | – | – | – |
| B3 | – | – | – | 0.579 | 0.000271 | 468000 | – | – | – | – |
| B4 | 0.39 | 0.000308 | 786000 | 0.39 | 0.000308 | 786000 | no binding | no binding | no binding | no binding |
| B5 | – | – | – | 0.429 | 0.0002 | 466000 | – | – | – | – |
| B6 | – | – | – | 0.626 | 0.000164 | 262000 | – | – | – | – |
| B7 | – | – | – | 0.639 | 0.000171 | 268000 | – | – | – | – |
